This passage reports reduction of E2A SUMOylation against HAdV wt infection results from EP3815699A1, “NEW MEANS AND METHODS FOR THERAPY AND DIAGNOSIS OF […]” (Technische Universität München, priority 2019, dated 2021).

In this experiment the target is His/HA-SUMO-2 (stably expressed in HepaRG cells) (UniProt P61956). The experiment is described as follows: Ni-NTA purification of covalent His/HA-SUMO-2 conjugates from infected HepaRG cells, anti-E2A immunoblot, densitometry normalised to E2A levels. For orientation: A western blot detects proteins with antibodies after separation by electrophoresis.

“E2A K94/132/202R, untagged (pCMX3b-E2AK94/132/202R / pE2A-SCM, or expressed from HAdV E2A SCM mutant virus) (from UniProt P03265 1-529)” had a reduction of E2A SUMOylation against HAdV wt infection of 70%.
